Measured values from IntAct's records for PubMed 22916032.

B1: U3 small nucleolar RNA-associated protein 4 homolog (Homo sapiens), Q969X6 (parent)
chain: MGEFKVHRVRFFNYVPSGIRCVAYNNQSNRLAVSRTDGTVEIYNLSANYFQEKFFPGHESRATEALCWAEGQRLFSAGLNGEIMEYDLQALNIKYAMDAFGGPIWSMAASPSGSQLLVGCEDGSVKLFQITPDKIQFERNFDRQKSRILSLSWHPSGTHIAAGSIDYISVFDVKSGSAVHKMIVDRQYMGVSKRKCIVWGVAFLSDGTIISVDSAGKVQFWDSATGTLVKSHLIANADVQSIAVADQEDSFVVGTAEGTVFHFQLVPVTSNSSEKQWVRTKPFQHHTHDVRTVAHSPTALISGGTDTHLVFRPLMEKVEVKNYDAALRKITFPHRCLISCSKKRQLLLFQFAHHLELWRLGSTVATGKNGDTLPLSKNADHLLHLKTKGPENIICSCISPCGSWIAYSTVSRFFLYRLNYEHDNISLKRVSKMPAFLRSALQILFSEDSTKLFVASNQGALHIVQLSGGSFKHLHAFQPQSGTVEAMCLLAVSPDGNWLAASGTSAGVHVYNVKQLKLHCTVPAYNFPVTAMAIAPNTNNLVIAHSDQQVFEYSIPDKQYTDWSRTVQKQGFHHLWLQRDTPITHISFHPKRPMHILLHDAYMFCIIDKSLPLPNDKTLLYNPFPPTNESDVIRRRTAHAFKISKIYKPLLFMDLLDERTLVAVERPLDDIIAQLPPPIKKKKFGT
partner: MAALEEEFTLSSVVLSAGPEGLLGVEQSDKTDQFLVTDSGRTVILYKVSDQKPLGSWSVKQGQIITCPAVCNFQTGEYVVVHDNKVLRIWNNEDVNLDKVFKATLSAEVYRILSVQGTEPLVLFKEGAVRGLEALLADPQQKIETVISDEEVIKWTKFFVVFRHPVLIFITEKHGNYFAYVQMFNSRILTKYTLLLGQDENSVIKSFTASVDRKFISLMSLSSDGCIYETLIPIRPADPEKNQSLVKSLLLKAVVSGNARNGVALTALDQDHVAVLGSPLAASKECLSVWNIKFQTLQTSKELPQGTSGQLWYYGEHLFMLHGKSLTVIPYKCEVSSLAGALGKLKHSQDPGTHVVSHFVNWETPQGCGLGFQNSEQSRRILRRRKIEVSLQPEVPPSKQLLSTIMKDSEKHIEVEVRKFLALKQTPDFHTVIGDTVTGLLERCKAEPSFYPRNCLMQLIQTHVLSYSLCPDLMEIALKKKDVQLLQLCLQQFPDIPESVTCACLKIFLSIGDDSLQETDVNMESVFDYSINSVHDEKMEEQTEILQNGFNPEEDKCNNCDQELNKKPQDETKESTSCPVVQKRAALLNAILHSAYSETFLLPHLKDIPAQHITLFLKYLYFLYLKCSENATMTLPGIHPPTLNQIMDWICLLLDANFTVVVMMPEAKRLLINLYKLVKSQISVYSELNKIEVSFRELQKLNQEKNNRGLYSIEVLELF

Variants of: B1
Conditions: with nol11_human NOL11, Q9H8H0

For R565W, which “effect of a mutation on the interaction” value is on record?
The value was “decreasing interaction strength”.
